Reference: patent US20030036092A1

Target: fluorogenic OmpT peptide substrate (BODIPY / trimethylrhodamine)
Assay: cell-based or functional assay

In the case of “OmpT protease, wild type, expressed from multicopy plasmid pML19 in E. coli UT5600 (from UniProt P09169 21-317) (enzyme)”, the mean fluorescence intensity of cells by FACS after exposure to the fluorogenic substrate is reported as 30 times.
